In publication PMC10521975, “Species-specific cleavage of cGAS by picornavirus protease 3C disrupts mitochondria DNA-mediated immune sensing”:

Target: T1, pcGAS full-length (pcGASFL) (Sus scrofa (porcine), UniProt I3LM39 1-495)
T1 sequence: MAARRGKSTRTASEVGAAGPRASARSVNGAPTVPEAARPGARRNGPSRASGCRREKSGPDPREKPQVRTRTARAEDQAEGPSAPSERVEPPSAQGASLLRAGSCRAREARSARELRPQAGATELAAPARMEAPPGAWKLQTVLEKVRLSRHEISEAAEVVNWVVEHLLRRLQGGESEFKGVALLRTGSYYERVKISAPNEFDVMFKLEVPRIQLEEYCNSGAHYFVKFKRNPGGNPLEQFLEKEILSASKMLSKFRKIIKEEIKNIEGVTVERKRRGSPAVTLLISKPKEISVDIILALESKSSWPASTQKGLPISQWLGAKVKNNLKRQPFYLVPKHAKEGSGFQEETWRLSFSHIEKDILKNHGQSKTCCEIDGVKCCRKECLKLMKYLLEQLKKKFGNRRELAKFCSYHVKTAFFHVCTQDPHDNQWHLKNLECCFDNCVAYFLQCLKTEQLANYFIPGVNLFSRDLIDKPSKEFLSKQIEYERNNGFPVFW
Assay: EMSA; pcGAS dose series; EMSA: 50 uM ISD45, pcGAS at DNA:protein 1:1 to 1:32, RT 1 h, 1% agarose in 40 mM Tris-HCl pH 9.2; pull-down: pcGAS + 3C in 50 mM HEPES pH 7.5, 3 mM EDTA, 150 mM NaCl, 0.005% Tween-20, 10 mM DTT at 37 C 2 h, then 4 h with HSV60 streptavidin beads
Details: protein: recombinant; tags: N-term His6-SUMO-FLAG, C-term HA (SUMO kept on full-length protein); blunt

B1: ISD45 (dsDNA)
DNA 1: TACAGATCTACTAGTGATCTATGACTGATCTGTACATGATCTACA
DNA 2: TGTAGATCATGTACAGATCAGTCATAGATCACTAGTAGATCTGTA
B1: binds.
